# Measurements from patent publication US20260028422A1 (CONCEPT TO MEDICINE BIOTECH, published 2026).
# B1: h13B4.v16 benchmark antibody (antibody, V domains shown)
# VH: EVQLVESGEGLVQPGGSLRLSCAASGFSLSSYAMGWVRQAPGKGLEYVGIINSYGNTYYANWAKGRFTISRDNSKNTVYLQMGSLRAEDMAVYYCARDPGVSSNLWGRGTLVTVSS
# VL: DIQMTQSPSTLSASVGDRVTITCQASQNIYSGLAWYQQKPGKAPKLLIYGASKLASGVPSRFSGSGSGTEFTLTISSLQPDDFATYYCQATYYSSNSVAFGGGTKVEIK
# B2: 254B4D9 chimeric monoclonal antibody (antibody, V domains shown)
# VH: QIQLVQSGPELKKPGETVKISCKASGYTFTAYGMSWVKQAPGKGLQWMGWINTYSGVPTYTDDFKGRFAFSLEASASTAFLQINNLKNEDTSTYFCARRAAVVAKYWYFDVWGTGTTVTVSS
# VL: DIQMTQSPSSLFASLGGKVIITCKSSQDINKRISWYQHKPGKGPRLLIHSTSSLQPGIPLRFSGSGSGRDYSFSISNLEPEDIATYFCLQYDNLLTFGAGTKLELK
# B3: 216G3D6 chimeric monoclonal antibody (antibody, V domains shown)
# VH: QVTLKESGPGILQPSQTLSLTCSFSGFSLSTSGMGVGWIRQPSGKGLEWLAHIWWDDDKHCNPALKSRLTISKDTSSNQVFLKIASLDTADTATYYCTQMTMTREFAYWGQGTLVTVSA
# VL: DIQMTQTISSLSASLGDRVTISCSAGQGISNYLNWYQQKPDGTVKLLIYYTSRLHSGVPSRFSGSGSGTDFSLTISNLEPEDIATYFCQQYSKFPYTFGGGTKLEIK
# B4: 276C2D1 chimeric monoclonal antibody (antibody, V domains shown)
# VH: QVQLQQSGPELVKPGASVKLSCKASGYTFTSYDINWVKQRPGLGLEWIGWIYPRDGYTKYNEKFKGKATLAVDTSSSTAYMELHSLTSEDSAVYFCARGYYSNLYYFDYWGQGTTLTVSS
# VL: EVVLTQSPPTMAASPGEKITITCSASSSISSNYLHWYQQKPGFSPKLLIYRTSNLASGVPARFSGSGSGTSYSLTIGTMEAEDVATYYCQQGRSIPLTFGAGTKLELK
# B5: 280C6A3 chimeric monoclonal antibody (antibody, V domains shown)
# VH: QVQLQQSGPELVKPGASVKLSCKASGYSFTTYDINWVKQRPGQGLEWIGWIYPRDGSTKYNEKFKGKATLTLDTSSNTAYMGLHSLTSEDSAVYFCARGYYDNLYYFDYWGQGTTLTVSS
# VL: EIVLTQSPTTMAASPGEKITITCSASSSVSSNYLHWYQQKPGFSPKLLIYRTSNLASGVPARFSGSGSGTSYSLTIGTMEAEDVATYYCQQGRIVPLTFGAGTKLELK
# B6: 300A5A3 chimeric monoclonal antibody (antibody, V domains shown)
# VH: QVQLQQSGPELVKPGASVKLSCKASGYTFTTYDINWVKQRPGLGLEWIGWIYPRDGYTKYNEKFKGKATLAVDTSSSTASMELHSLTSEDSAVYFCARGYYDNLYYFDNWGPGTTLTVSS
# VL: ENVLTQSPTTVAASPGEKITITCSASSIISSNYLHWYQQKPGFSPKLLIYRTSNLASGVPARFSGSGSGTSYSLTIGTMEAEDAATYYCQQGRSVPLTFGAGTKLELK
# B7: 293C2B7 chimeric monoclonal antibody (antibody, V domains shown)
# VH: QVQLQQSGPELVKPGASVKLSCKASGYTFTSYDINWVKQRPGQGLEWIGWIYPRDGYTKYKEKFKGKATLTVDTSSSTAYMELHSLTSEDSAVYFCARGFYSNLYYFDYWGQGTTLTVSS
# VL: EIVLTQSPTTMATSPGEKITITCSASSSISSNYLHWYQQKPGFSPKLLIYRTSNLASGVPDRFSGSGSGTSYSLTIGTMEAEDVATYYCQQGRSIPLTFGAGTKLELK
# B8: 265F11B5 chimeric monoclonal antibody (antibody, V domains shown)
# VH: QVQLQQSGPELVKPGASVRLSCKASGYTFTTYDINWVKQRPGLGLEWIGWIYPRDGYTKYNEKFKGRATLAVDTSSSTAYMELHSLTSEDSAVYFCTRGYYDNLYYFDYWGQGTTLTVSS
# VL: EIVLTQSPTTVAASPGEKITITCSASSIISSNYFHWYQQRPGFSPKLLIYRTSNLASGVPARFSGSGSGTSYSLTIGTMEAEDVATYYCQQGRSVPLTFGAGTKLELK
# B9: 10F7D9 chimeric monoclonal antibody (antibody, V domains shown)
# VH: QIQLVQSGPELKKPGETVKISCKASGYTFTNYGMNWVKQAPGKGLKWMGWINTYTGEPTYADDFKGRFAFSLETSASTAYLQINNLKNEDLATYFCATYGHYAWFAYWGQGTLVTVSA
# VL: QIVLSQSPAILSASPGEKVTMTCRASSSVSYMHWYQQKSGSSPKPWIYATSNLASGVPARFSGSGSGTSYSLTISRVEAEDAATYFCQQWGTKPLTFGAGTKLELK
# B10: 85H8D5 chimeric monoclonal antibody (antibody, V domains shown)
# VH: QIQLVQSGPELKKPGETVKISCMASGYTFTTHGVTWVKQAPGQGLQRMGWINTYSGVPTYADDFKGRFVFSLETSANTAHLQINNLKNEDTATYFCARTNNYRYFDVWGTGTTVTVSS
# VL: QIVLSQSPAILSSSPGEKVTMTCRASSSVSYMHWYQQKPGSSPKPWIYATSNLASGVPARFSGSGSGTSYFLTISRVEAEDAATYYCQQWNTDPPTFGGGTKLEIK
# Experiments:
# [1] = target: T1, human MerTK expressed on cells (human, UniProt Q12866 21-999); experiment: FACS on CHO-K1 cells overexpressing human MerTK, MFI (PE)
# T1 construct: whole, on cells; also called CHO-K1-hMerTK; CHO-K1-MerTK
# T1 sequence (looked up): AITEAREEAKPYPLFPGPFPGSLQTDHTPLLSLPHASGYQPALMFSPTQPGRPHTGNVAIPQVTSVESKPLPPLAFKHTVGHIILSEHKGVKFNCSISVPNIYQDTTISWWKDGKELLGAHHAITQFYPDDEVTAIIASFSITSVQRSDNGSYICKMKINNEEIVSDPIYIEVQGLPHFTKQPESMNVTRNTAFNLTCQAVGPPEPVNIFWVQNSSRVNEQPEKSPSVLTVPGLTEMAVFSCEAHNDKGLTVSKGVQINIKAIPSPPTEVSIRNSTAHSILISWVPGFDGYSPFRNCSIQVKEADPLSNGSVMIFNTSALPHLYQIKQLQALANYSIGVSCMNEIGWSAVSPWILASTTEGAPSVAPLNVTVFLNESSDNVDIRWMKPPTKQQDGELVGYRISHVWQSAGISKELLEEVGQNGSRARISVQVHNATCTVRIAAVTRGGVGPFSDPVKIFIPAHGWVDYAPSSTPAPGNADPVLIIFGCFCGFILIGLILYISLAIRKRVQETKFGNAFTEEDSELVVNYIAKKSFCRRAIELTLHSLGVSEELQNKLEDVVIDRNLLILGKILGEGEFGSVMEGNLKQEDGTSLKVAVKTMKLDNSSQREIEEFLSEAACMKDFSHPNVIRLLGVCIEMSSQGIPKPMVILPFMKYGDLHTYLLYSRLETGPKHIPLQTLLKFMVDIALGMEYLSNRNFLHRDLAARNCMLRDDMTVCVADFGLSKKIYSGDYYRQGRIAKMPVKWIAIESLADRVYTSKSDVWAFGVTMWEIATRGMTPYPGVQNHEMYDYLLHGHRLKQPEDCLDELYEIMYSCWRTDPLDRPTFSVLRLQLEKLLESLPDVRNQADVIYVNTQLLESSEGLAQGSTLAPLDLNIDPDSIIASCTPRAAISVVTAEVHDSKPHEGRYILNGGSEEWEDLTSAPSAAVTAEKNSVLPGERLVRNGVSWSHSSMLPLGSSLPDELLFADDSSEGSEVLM
# Method: To evaluate the binding property to the antigen expressed on the cells, the chimeric monoclonal antibodies were analyzed for their binding to human MerTK overexpressed on CHO-K1 cells by FACS. Briefly, human MerTK overexpressing CHO-K1 (CHO-K1-MerTK) cells were firstly incubated with 5-fold serially diluted mAbs starting at 20 nM at 4° C. for 1 hour. After washing with FACS buffer, the PE conjugated anti-human IgG-Fc secondary antibody was added to each well and incubated at 4° C., for 30 mins. The mean fluorescence intensity (MFI) of PE were evaluated by QuantAnalyzer 16.
# human MerTK-his protein [2] = target: T2, human MerTK-his protein (human, UniProt Q12866 21-505); experiment: ELISA, coated human MerTK-his
# T2 construct: extracellular domain; also called hMerTK-His; human MerTK protein
# T2 sequence (looked up): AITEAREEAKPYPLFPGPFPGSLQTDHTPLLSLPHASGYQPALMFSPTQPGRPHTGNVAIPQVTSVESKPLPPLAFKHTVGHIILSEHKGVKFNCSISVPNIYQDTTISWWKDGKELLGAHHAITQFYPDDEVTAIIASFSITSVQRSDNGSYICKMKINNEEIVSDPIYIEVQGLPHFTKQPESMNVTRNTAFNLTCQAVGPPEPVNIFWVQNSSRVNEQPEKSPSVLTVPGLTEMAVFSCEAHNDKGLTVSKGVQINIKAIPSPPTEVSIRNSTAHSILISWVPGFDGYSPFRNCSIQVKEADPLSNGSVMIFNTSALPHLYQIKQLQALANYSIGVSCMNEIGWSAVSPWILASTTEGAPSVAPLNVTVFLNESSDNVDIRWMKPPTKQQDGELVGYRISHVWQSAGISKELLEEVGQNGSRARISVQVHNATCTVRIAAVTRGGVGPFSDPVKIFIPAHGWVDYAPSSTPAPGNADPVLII
# Method: (§1) To evaluate the binding activity, the chimeric mAbs were subjected to ELISA test. Briefly, 96-well plates were coated with human or cyno MerTK-his protein at 2 μg/mL in PBS, 100 μL/well at 4° C. overnight, then blocked with 150 μL/well of 1% BSA. Five-fold dilutions of MerTK antibodies starting from 20 nM were added to each well and incubated for 1 hour at room temperature. The plates were washed with PBS/Tween-20 and then incubated with goat anti-human IgG Fe antibody conjugated with Horse Radish Peroxidase (HRP) for 30 minutes (mins) at room temperature. After washing, the plates were developed with TMB substrate and subsequent stop solution was added to complete the reaction. The signal from each well was read by spectrophotometer at OD 450 nm.
# human MerTK-his protein [3] = target: T2, human MerTK-his protein; experiment: SPR Biacore T200, antibody captured on Protein A chip
# Method: The binding affinity of the MerTK chimeric antibodies to human MerTK-his protein was tested with Biacroe™ T200 using a capture method. Briefly, the antibodies were captured with a Pro-A chip. […] The antigen was allowed to dissociate for 420-800 s. Data analysis was carried out using Biacore™ T200 evaluation software.
# cyno MerTK-his protein = target: T3, cyno MerTK-his protein (cynomolgus, UniProt A0A2K5V1H9 27-505); experiment: ELISA, coated cyno MerTK-his
# T3 construct: also called cyno MerTK protein; Cynomolgus
# T3 sequence: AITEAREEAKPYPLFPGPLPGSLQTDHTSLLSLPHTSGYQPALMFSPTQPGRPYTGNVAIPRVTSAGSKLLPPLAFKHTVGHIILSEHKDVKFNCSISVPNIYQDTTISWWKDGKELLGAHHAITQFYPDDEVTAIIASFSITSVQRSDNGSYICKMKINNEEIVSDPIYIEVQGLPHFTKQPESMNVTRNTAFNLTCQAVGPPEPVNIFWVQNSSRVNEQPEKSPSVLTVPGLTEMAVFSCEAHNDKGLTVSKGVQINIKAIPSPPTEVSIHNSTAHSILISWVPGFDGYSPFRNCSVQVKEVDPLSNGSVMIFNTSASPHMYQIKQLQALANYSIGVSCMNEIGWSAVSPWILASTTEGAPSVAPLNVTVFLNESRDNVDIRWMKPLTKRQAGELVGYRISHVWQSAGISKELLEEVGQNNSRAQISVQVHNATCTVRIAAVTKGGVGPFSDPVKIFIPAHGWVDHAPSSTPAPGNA
# Method: as §1
Binder,EC50 [1] [nM],Top [1],EC50 (human MerTK-his protein [2]) [nM],Kd (human MerTK-his protein [3]) [nM],koff (human MerTK-his protein [3]) [s⁻¹],kon (human MerTK-his protein [3]) [M⁻¹ s⁻¹],EC50 (cyno MerTK-his protein) [nM]
B1,0.17,5920 MFI (PE),,,,,
B2,,,0.047,11.9,0.000782,65500,0.056
B3,0.17,11000 MFI (PE),0.046,0.852,8.97e-05,105000,0.047
B4,,,0.019,12.7,0.00223,175000,0.02
B5,,,0.012,3.08,0.000553,179000,0.014
B6,,,0.024,1.36,0.00029,214000,0.026
B7,,,0.017,,,,0.02
B8,,,0.0097,1.22,0.000232,191000,0.017
B9,0.04,10800 MFI (PE),0.027,4.29,0.00238,554000,0.024
B10,0.054,10500 MFI (PE),0.025,11.4,0.00664,582000,0.024
